Test results reported in patent US20170368138A1 (published 2017).

Biological target: U87MG
Test: flow cytometry, cell binding; human U87MG cells

B1: NOD201M (Fc fusion)
chain: GCPRPRGDNPPLTCSQDSDCLAGCVCGPNGFCGEPRVPITQNPCPPLKECPPCAAPDLLGGPSVFIFPPKIKDVLMISLSPMVTCVVVDVSEDDPDVQISWFVNNVEVHTAQTQTHREDYNSTLRVVSALPIQHQDWMSGKEFKCKVNNRALPSPIEKTISKPRGPVRAPQVYVLPPPAEEMTKKEFSLTCMITGFLPAEIAVDWTSNGRTEQNYKNTATVLDSDGSYFMYSKLRVQKSTWERGSLFACSVVHEGLHNHLTTKTISRSLG
Kd: 700 pM
